Here are results for three molecules from patent EP4818210A1.

The target in assay [1] is Her2/ERBB2 Protein, Human, Recombinant (ECD, His Tag) (human) (UniProt P04626). The assay can be described thus: ELISA, control on human HER2 antigen. (In general: In an ELISA, binding on a coated surface is turned into a signal by an enzyme label.)
For assay [2] the target is unchanged. Briefly: ELISA, E. coli lysate supernatant on human HER2 antigen.

As for Irrelevant, the OD450 in assay [1] is 0.073 OD450.

B1: M26H2-3134 (VHH)
VHH: QVQLVESGGGMVQPGGSLRLSCAASGITFRHYTMSWYRQAPGKERELVASITYGGVTTNYADSVKGRFTLSRDDAKTTAYLQMTGLKPEDTAVYYCHADWTAAGLNHWGQGTQVTVSS
As for B1, the OD450 in assay [2] was found to be 1.03 OD450.

B2: M26H2-2002 (VHH)
VHH: QVQLVESGGGLVQPGGSLRLSCAASGFIFGNYPMNWYRQAPGKEREFVAVITRDGGVTRYAASVKGRFTITRDNAKNTVFLQMNSLKLEDTAVYYCHNPNYNAWGQGTQVTVAS
As for B2, the OD450 in assay [2] amounted to 0.804 OD450.
